{
  "source": "paper PMC2695410",
  "origin": "cited, not measured here",
  "target": "Calmodulin (Bos taurus) (UniProt P62157)",
  "data": [
    {"substance": "Aquaporin 0 C-terminal peptide C-terminus (from UniProt P30301)", "values": [
      {"measurement": "Kd", "value": 480, "unit": "nM"}
    ]}
  ]
}
